± gives the uncertainty stated by the source.
Assay: self-splicing fitness, log relative to wild type (ln ratio); higher = more splicing; Tetrahymena group I intron in knt gene, E. coli kanamycin selection, DiMSum; sequences stand for … in CUCUCU…GGAGGGAAAAGUUAUCAGGCAUGCACCUGGUAGCUAGUCUUUAAACCAAUAGAUUGCAUCGGUUUAAAAGGCAAGACCGUCAAAUUGCGGGAAAGGGGUCAACAGCCGUUCAGUACCAAGUCUCAGGGGAAACUUUGAGAUGGCCUUGCAAAGGGUAUGGUAAUAAGCUGACGGACAUGGUCCUAACCACGCAGCCAAGUCCUAAGUCAACAGAUCUUCUGUUGAUAUGGAUGCAGUUCACAGACUAAAUGUCGGUCGGGGAAGAUGUAUUCUUCUCAUAAGAUAUAGUCGGACCUCUCCUUAAUGGGAGCUAGCGGAUGAAGUGAUGCAACACUGGAGCCGCUGGGAACUAAUUUGUAUGCGAAAGUAUAUUGAUUAGUUUUGGAGUACUCGUGGUCG
How it was run: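 Library with all eight P1ex-region intron nucleotides randomised, intron inside the knt kanamycin-resistance gene on pET-22b(+), in E. coli BL21(DE3). Cells grew overnight at 37°C or 30°C on LB agar with or without 25 μg/mL kanamycin (plus 100 μg/mL carbenicillin, 50 μM IPTG, 0.2% rhamnose), in six replicate transformations. Pooled colonies were amplicon-sequenced on Illumina HiSeq 2500. DiMSum fitness is the error-weighted combination of wild-type-normalised replicate fold changes, kanamycin versus none.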

Sequence | self-splicing fitness (ln) (30 °C) | self-splicing fitness (ln) (37 °C)
AUGAAGCAAUAUUACGCGUU | -2.78 ± 0.12 | -0.429 ± 0.093
AUGUAGCAAUAUUACGGAAU | -1.46 ± 0.082 | -0.789 ± 0.11
UUCUAGCAAUAUUACGUUGU | -3.15 ± 0.16 | -2.75 ± 0.18
GAUCAGCAAUAUUACGAAUC | -3.46 ± 0.41 | -2.61 ± 0.39
CGUAAGCAAUAUUACGGGCU |  | -1.92 ± 0.21
UAAUAGCAAUAUUACGUAGC | -2.63 ± 0.35 | -2.19 ± 0.26
AUUCAGCAAUAUUACGAAAA | 0.178 ± 0.15 | 0.575 ± 0.17
AUGCAGCAAUAUUACGGUUU | -0.723 ± 0.065 | -0.427 ± 0.075
UCAAAGCAAUAUUACGUACG | -0.29 ± 0.067 | 0.0719 ± 0.077
CUGCAGCAAUAUUACGGCUU | -4.37 ± 0.36 | -2.23 ± 0.28
AUCAAGCAAUAUUACGGCGA | -0.555 ± 0.077 | 0.246 ± 0.1
GCAGAGCAAUAUUACGCAGC | -2.42 ± 0.47 | 
UGGAAGCAAUAUUACGAAAG | -1.72 ± 0.16 | -0.893 ± 0.2
UACGAGCAAUAUUACGUGUU | -3.63 ± 0.19 | -3.63 ± 0.29
CCAAAGCAAUAUUACGUCUC | -3.08 ± 0.13 | -2.89 ± 0.092
CCGUAGCAAUAUUACGUAAC | -4.68 ± 0.46 | -0.709 ± 0.24
CCGCAGCAAUAUUACGUGAU | -2.62 ± 0.15 | -2.31 ± 0.2
CCCAAGCAAUAUUACGUACG | -3.55 ± 0.21 | -2.9 ± 0.15
CAGUAGCAAUAUUACGUUUC | -3.64 ± 0.3 | -2.69 ± 0.3
AUCUAGCAAUAUUACGGGAG | -0.833 ± 0.076 | -0.293 ± 0.092
GCCAAGCAAUAUUACGCCGG | -2.18 ± 0.26 | -2.13 ± 0.4
UCUGAGCAAUAUUACGCAGC | -2.75 ± 0.42 | 
UUUUAGCAAUAUUACGCCCA | -0.313 ± 0.22 | 0.00602 ± 0.28
GUAAAGCAAUAUUACGUAGC | -2.6 ± 0.11 | -0.771 ± 0.097
GUUAAGCAAUAUUACGUUGU | -3.68 ± 0.16 | -2.28 ± 0.2

Sequence | self-splicing fitness (ln) (30 °C) | self-splicing fitness (ln) (37 °C)
UGCCAGCAAUAUUACGAAGA | -2.87 ± 0.18 | -1.33 ± 0.14
CGUUAGCAAUAUUACGGAGU | -4.73 ± 0.31 | -3.23 ± 0.26
GCAUAGCAAUAUUACGCAAU | -2.37 ± 0.11 | -1.77 ± 0.12
GUAAAGCAAUAUUACGAACG | -0.437 ± 0.077 | -0.132 ± 0.12
UAGUAGCAAUAUUACGUUGG | -3.52 ± 0.22 | -2.69 ± 0.16
UCGCAGCAAUAUUACGCUAU | -5.08 ± 0.36 | -3 ± 0.17
ACUAAGCAAUAUUACGUGCU | -1.62 ± 0.073 | -1.06 ± 0.099
UGGUAGCAAUAUUACGCUGC | -2.89 ± 0.31 | -2.86 ± 0.4
AUGCAGCAAUAUUACGAAAU | -2.02 ± 0.13 | -0.358 ± 0.11
CCUGAGCAAUAUUACGGGGU | -3.44 ± 0.24 | -3.06 ± 0.27
UCAUAGCAAUAUUACGUUAC | -3.58 ± 0.29 | -3.01 ± 0.33
ACGUAGCAAUAUUACGUGCG | -2.19 ± 0.1 | -1.17 ± 0.11
UGUAAGCAAUAUUACGCUGA | -3.08 ± 0.26 | -1.33 ± 0.16
UCCUAGCAAUAUUACGCUGG | -3.84 ± 0.42 | -2.29 ± 0.32
CAUCAGCAAUAUUACGCGAG | 0.128 ± 0.083 | -0.05 ± 0.1
CACGAGCAAUAUUACGCUAC |  | -2.5 ± 0.37
AGGCAGCAAUAUUACGGGAU | -2.85 ± 0.16 | -1.39 ± 0.14
CUCCAGCAAUAUUACGAGGC | -3.02 ± 0.3 | 
AUUAAGCAAUAUUACGAGGA | -3.01 ± 0.28 | -0.871 ± 0.19
CACCAGCAAUAUUACGGGGC | -4.45 ± 0.22 | -1.29 ± 0.14
UACAAGCAAUAUUACGUGGU | -3.29 ± 0.14 | -3.27 ± 0.17
CAGUAGCAAUAUUACGAAAG | -0.623 ± 0.099 | -0.726 ± 0.14
GCAGAGCAAUAUUACGUCUU | -0.897 ± 0.12 | -2.22 ± 0.21
GCGUAGCAAUAUUACGACGA | -0.712 ± 0.15 | -0.0139 ± 0.19
GUAGAGCAAUAUUACGUCAA | -2.01 ± 0.14 | -2.38 ± 0.29

Sequence | self-splicing fitness (ln) (30 °C) | self-splicing fitness (ln) (37 °C)
ACCGAGCAAUAUUACGCGGU | -3.02 ± 0.18 | -1.7 ± 0.2
CGCAAGCAAUAUUACGUUAA | -2.49 ± 0.18 | -2.62 ± 0.21
UGCUAGCAAUAUUACGAUAC | -2.57 ± 0.28 | -1.93 ± 0.28
UGCAAGCAAUAUUACGACCU | -0.737 ± 0.07 | -0.219 ± 0.089
ACGCAGCAAUAUUACGUGGU | -4.06 ± 0.12 | -2.58 ± 0.091
GCUCAGCAAUAUUACGGUCC | -0.681 ± 0.065 | 0.158 ± 0.087
AGCGAGCAAUAUUACGUCUU | -2.73 ± 0.16 | -2.08 ± 0.18
CCGUAGCAAUAUUACGGUUC | -2.21 ± 0.2 | -2.04 ± 0.26
UCGGAGCAAUAUUACGACAC | -3.18 ± 0.48 | -1.19 ± 0.3
ACCGAGCAAUAUUACGAGAC | -3.81 ± 0.25 | -2.84 ± 0.4
CGACAGCAAUAUUACGAGAC | -4.34 ± 0.3 | -2.57 ± 0.26
AACAAGCAAUAUUACGCUUU | -3.18 ± 0.15 | -2.77 ± 0.18
UUGGAGCAAUAUUACGUUAA | -2.09 ± 0.25 | -1.91 ± 0.25
GGGUAGCAAUAUUACGUUUG | -1.9 ± 0.14 | -1.35 ± 0.21
UGGCAGCAAUAUUACGUUUU | -2.85 ± 0.14 | -0.527 ± 0.13
GCCCAGCAAUAUUACGAGCC | -3.1 ± 0.24 | -0.756 ± 0.15
GGGCAGCAAUAUUACGGGUA |  | -2.55 ± 0.35
CUUGAGCAAUAUUACGCUGA | -2.33 ± 0.25 | -1.9 ± 0.23
AUCCAGCAAUAUUACGGAAA | -1.07 ± 0.092 | -1.02 ± 0.084
GUGAAGCAAUAUUACGUAUA | -1.53 ± 0.077 | -0.347 ± 0.1
GUGUAGCAAUAUUACGGGGU | -3.62 ± 0.26 | -2.63 ± 0.34
GUCAAGCAAUAUUACGAAUA | -1.85 ± 0.16 | -1.42 ± 0.14
ACAAAGCAAUAUUACGGGGU | -3.15 ± 0.16 | -2.59 ± 0.18
ACUAAGCAAUAUUACGGAGG | -2.52 ± 0.11 | -1.16 ± 0.13
UCAGAGCAAUAUUACGACAC | -2.63 ± 0.37 | -0.191 ± 0.45

Sequence | self-splicing fitness (ln) (30 °C) | self-splicing fitness (ln) (37 °C)
GGUGAGCAAUAUUACGGCUA | -0.0423 ± 0.12 | 0.0315 ± 0.14
UUAUAGCAAUAUUACGGAAC | -3.09 ± 0.36 | -1.71 ± 0.44
UCGGAGCAAUAUUACGAGAU |  | -1.51 ± 0.35
ACUGAGCAAUAUUACGCGGA | -1.94 ± 0.1 | -1.74 ± 0.12
UUGCAGCAAUAUUACGAUGU | -3.3 ± 0.16 | -3.09 ± 0.3
UGAUAGCAAUAUUACGAAUU | -4.02 ± 0.46 | -2.64 ± 0.23
GUCGAGCAAUAUUACGAUAU | -1.44 ± 0.13 | -0.298 ± 0.17
GGUGAGCAAUAUUACGUCGU | -2.57 ± 0.15 | -1.91 ± 0.2
AGCUAGCAAUAUUACGAUGG | -3.87 ± 0.27 | -2.05 ± 0.28
CGACAGCAAUAUUACGAUCA | -0.455 ± 0.07 | 0.458 ± 0.096
GCAAAGCAAUAUUACGCGAC | -3.4 ± 0.13 | -1.54 ± 0.16
UCAUAGCAAUAUUACGCGAC |  | -1.46 ± 0.46
UAGUAGCAAUAUUACGCCUA | -0.556 ± 0.14 | -0.575 ± 0.14
GACCAGCAAUAUUACGCUCG | -0.964 ± 0.13 | -0.766 ± 0.12
CGGCAGCAAUAUUACGGGUA | -3.66 ± 0.25 | -2.84 ± 0.19
UGUAAGCAAUAUUACGAUAA | -1.12 ± 0.1 | 0.257 ± 0.13
UCAAAGCAAUAUUACGAUUG | -2.46 ± 0.14 | -0.73 ± 0.11
GGGAAGCAAUAUUACGCUCG | -0.703 ± 0.27 | -1.03 ± 0.18
AGGAAGCAAUAUUACGUUCA | -0.532 ± 0.13 | -1.05 ± 0.21
AAAAAGCAAUAUUACGCCCC | -0.356 ± 0.25 | 0.308 ± 0.34
UUUAAGCAAUAUUACGAAUA | -1.09 ± 0.21 | -0.334 ± 0.22
UAUAAGCAAUAUUACGAUUU | -1.43 ± 0.091 | -0.65 ± 0.1

Reference: the supplement of paper PMC7877785
